We go through 14 molecules from US20170044259A1 (CYTOMX THERAPEUTICS, published 2017).

Changes are numbered by the printed parent chain.

For experiment [1], the target named is T1, human PD-1-Fc (R and D systems, Minneapolis, Minn.) (human, UniProt Q15116 25-167).
T1 construct: bought; also called hPD-1-Fc; hPD-1; not shown: Fc part of the bought fusion
Put plainly: plate ELISA on human PD-1-Fc.

For experiment [2], the target named is T1, human PD-1-Fc (R and D systems, …). Put plainly: plate ELISA on human PD-1-Fc; apparent KD.
The target is the same in experiment [3]. Put plainly: plate ELISA on human PD-1-Fc; reference A1.5.
The target is the same in experiment [4]. Put plainly: plate ELISA on human PD-1-Fc; reference A1.5. This is another data set of the same source.

T1 sequence (Q15116 25-167 limits assumed): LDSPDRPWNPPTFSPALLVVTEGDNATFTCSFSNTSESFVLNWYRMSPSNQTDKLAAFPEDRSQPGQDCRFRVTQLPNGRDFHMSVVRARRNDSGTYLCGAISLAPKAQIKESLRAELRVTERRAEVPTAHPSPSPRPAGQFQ

B1: A1.0 (antibody, human IgG4 S228P, kappa, V domains shown)
VH: EVQLVESGGGLVQPGGSLRLSCAASGFTFSGYAMSWVRQAPGKGLEWVAYISNSGGNAHYADSVKGRFTISRDNSKNTLYLQMNSLRAEDTAVYYCTREDYGTSPFVYWGQGTLVTVSS
VL: DIQLTQSPSSLSASVGDRVTITCRASESVDNYGISFMNWFQQKPGKAPKLLIYAASNQGSGVPSRFSGSGSGTDFTLTISSMQPEDFATYYCQQSKDVPWTFGQGTKLEIKR
notes: humanized, full length hIgG4/hKappa
In the case of B1, the binding result in experiment [1] was “binds”.

B2: A1.2 (antibody, human IgG4 S228P, kappa, V domains shown)
VH: B1 VH
VL: B1 VL with N31Q
notes: as for B1
In the case of B2, the binding result in experiment [1] is on record as “binds”.

B3: A1.6 (antibody, human IgG4 S228P, kappa, V domains shown)
VH: B1 VH
VL: B1 VL with N57D
notes: as for B1
As to B3, the binding result in experiment [1] is recorded as “binds”.

B4: C1.1 (antibody, human IgG4 S228P, kappa, V domains shown)
VH: B1 VH with G31N, S54G, N57D, A58T, V64L, I70V, T97A, D100N
VL: B1 VL with A13V, V19A
notes: as for B1
In the case of B4, in experiment [1], the binding result is on record as “binds”.

B5: A1.4 (antibody, human IgG4 S228P, kappa)
heavy: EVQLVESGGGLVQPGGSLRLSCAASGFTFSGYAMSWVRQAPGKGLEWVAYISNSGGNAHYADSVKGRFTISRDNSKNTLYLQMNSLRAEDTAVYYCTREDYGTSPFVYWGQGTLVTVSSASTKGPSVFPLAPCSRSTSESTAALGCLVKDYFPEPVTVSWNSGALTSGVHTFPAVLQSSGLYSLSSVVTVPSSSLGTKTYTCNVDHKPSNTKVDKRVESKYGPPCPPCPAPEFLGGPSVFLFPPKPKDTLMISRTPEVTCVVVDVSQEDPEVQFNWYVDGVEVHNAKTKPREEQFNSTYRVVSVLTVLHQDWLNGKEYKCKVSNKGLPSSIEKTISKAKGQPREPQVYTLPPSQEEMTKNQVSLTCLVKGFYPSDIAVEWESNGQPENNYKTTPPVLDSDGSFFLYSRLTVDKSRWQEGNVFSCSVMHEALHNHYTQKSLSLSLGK
light: DIQLTQSPSSLSASVGDRVTITCRASESVDSYGISFMNWFQQKPGKAPKLLIYAASNQGSGVPSRFSGSGSGTDFTLTISSMQPEDFATYYCQQSKDVPWTFGQGTKLEIKRTVAAPSVFIFPPSDEQLKSGTASVVCLLNNFYPREAKVQWKVDNALQSGNSQESVTEQDSKDSTYSLSSTLTLSKADYEKHKVYACEVTHQGLSSPVTKSFNRGEC
notes: humanized, full length hIgG4/hKappa; also called anti-PD-1 A1.4; DyLight-650 A1.4
Consider B5, for which the binding result in experiment [1] is “binds”.

B6: PD-1 1.5 PD017 2001 (antibody, human IgG4 S228P, kappa)
heavy: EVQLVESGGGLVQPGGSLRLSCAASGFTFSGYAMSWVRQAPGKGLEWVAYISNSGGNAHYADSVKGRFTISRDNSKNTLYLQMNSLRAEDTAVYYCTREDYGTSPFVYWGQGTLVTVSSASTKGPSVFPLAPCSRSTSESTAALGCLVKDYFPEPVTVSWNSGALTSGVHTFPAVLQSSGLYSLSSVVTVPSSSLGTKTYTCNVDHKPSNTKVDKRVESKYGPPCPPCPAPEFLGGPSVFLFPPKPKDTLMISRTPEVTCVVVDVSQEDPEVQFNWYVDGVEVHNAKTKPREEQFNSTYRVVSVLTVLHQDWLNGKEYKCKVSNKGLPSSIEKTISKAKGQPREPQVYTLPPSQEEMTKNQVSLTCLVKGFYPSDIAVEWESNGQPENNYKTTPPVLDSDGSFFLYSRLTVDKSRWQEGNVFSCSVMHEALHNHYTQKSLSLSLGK
light: QGQSGQGTTCNLYQQSSMFCNAGGGSSGGSISSGLLSGRSDNHGGGSDIQLTQSPSSLSASVGDRVTITCRASESVDAYGISFMNWFQQKPGKAPKLLIYAASNQGSGVPSRFSGSGSGTDFTLTISSMQPEDFATYYCQQSKDVPWTFGQGTKLEIKRTVAAPSVFIFPPSDEQLKSGTASVVCLLNNFYPREAKVQWKVDNALQSGNSQESVTEQDSKDSTYSLSSTLTLSKADYEKHKVYACEVTHQGLSSPVTKSFNRGEC
notes: also called PD-17
As to B6, the Kd in experiment [2] came out at 22 nM. Besides, the “Masking Efficiency” value in experiment [3] stood at 12. Moreover, the “ME (masking efficiency, Kd of the activatable antibody divided by Kd of the parental antibody)” value in experiment [4] stood at 20.

B7: PD-1 1.5 PD026 2001 (antibody, human IgG4 S228P, kappa)
heavy: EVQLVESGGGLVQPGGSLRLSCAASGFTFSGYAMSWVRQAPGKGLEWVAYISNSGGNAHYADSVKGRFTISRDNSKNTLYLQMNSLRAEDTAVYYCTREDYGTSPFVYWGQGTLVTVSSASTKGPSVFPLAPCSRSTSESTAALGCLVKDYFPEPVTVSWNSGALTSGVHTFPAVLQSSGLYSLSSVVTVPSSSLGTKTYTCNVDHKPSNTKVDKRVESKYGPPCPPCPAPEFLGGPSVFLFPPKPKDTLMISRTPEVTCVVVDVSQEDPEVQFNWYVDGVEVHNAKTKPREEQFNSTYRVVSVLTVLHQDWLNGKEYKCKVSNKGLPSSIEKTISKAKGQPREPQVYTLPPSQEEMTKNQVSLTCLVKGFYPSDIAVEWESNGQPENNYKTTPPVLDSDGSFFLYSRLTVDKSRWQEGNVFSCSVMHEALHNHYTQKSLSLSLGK
light: B6 light with T8G, T9M, N11S, L12A, Q14A, Q15Y, M18K, F19L, N21T, A22I
For the molecule B7, in experiment [4], the “ME (masking efficiency, Kd of the activatable antibody divided by Kd of the parental antibody)” value was determined as 20.

B8: PD-1 1.5 PD012 2001 (antibody, human IgG4 S228P, kappa)
heavy: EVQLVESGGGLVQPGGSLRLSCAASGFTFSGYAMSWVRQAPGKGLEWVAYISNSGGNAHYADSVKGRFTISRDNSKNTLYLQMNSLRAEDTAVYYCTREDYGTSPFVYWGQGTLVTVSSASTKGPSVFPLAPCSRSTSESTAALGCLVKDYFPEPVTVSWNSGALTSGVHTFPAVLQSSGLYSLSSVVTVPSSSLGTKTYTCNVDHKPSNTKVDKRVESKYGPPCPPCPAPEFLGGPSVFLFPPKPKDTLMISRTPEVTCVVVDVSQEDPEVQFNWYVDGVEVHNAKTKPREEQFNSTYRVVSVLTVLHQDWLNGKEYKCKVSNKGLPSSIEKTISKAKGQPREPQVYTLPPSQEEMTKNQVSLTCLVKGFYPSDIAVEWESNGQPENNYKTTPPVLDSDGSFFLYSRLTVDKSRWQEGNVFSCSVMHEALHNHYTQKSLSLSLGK
light: QGQSGQGNWLDCQFYSECSVYGGGGSSGGSISSGLLSGRSDNHGGGSDIQLTQSPSSLSASVGDRVTITCRASESVDAYGISFMNWFQQKPGKAPKLLIYAASNQGSGVPSRFSGSGSGTDFTLTISSMQPEDFATYYCQQSKDVPWTFGQGTKLEIKRTVAAPSVFIFPPSDEQLKSGTASVVCLLNNFYPREAKVQWKVDNALQSGNSQESVTEQDSKDSTYSLSSTLTLSKADYEKHKVYACEVTHQGLSSPVTKSFNRGEC
notes: also called PD-12
With B8, the Kd in experiment [2] was 25 nM. In addition, the “Masking Efficiency” value in experiment [3] came out at 14. Besides, in experiment [4], the “ME (masking efficiency, Kd of the activatable antibody divided by Kd of the parental antibody)” value is 10.

B9: A1.5 PD34 2001 (antibody, human IgG4 S228P, kappa)
heavy: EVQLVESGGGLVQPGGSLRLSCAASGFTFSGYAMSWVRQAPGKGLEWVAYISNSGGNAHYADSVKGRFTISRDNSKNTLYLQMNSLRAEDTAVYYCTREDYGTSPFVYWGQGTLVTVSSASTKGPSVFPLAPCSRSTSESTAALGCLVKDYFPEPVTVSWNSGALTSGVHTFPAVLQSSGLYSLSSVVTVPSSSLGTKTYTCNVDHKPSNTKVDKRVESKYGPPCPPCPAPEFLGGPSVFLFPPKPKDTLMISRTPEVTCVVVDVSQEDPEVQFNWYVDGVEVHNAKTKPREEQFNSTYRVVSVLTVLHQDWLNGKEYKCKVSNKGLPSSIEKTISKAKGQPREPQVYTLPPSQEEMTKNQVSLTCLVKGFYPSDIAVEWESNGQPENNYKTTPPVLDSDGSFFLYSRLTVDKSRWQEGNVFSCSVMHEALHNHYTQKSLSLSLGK
light: QGQSGQGTSYCSIEHYPCNTHHGGGSSGGSISSGLLSGRSDNHGGGSDIQLTQSPSSLSASVGDRVTITCRASESVDAYGISFMNWFQQKPGKAPKLLIYAASNQGSGVPSRFSGSGSGTDFTLTISSMQPEDFATYYCQQSKDVPWTFGQGTKLEIKRTVAAPSVFIFPPSDEQLKSGTASVVCLLNNFYPREAKVQWKVDNALQSGNSQESVTEQDSKDSTYSLSSTLTLSKADYEKHKVYACEVTHQGLSSPVTKSFNRGEC
notes: also called PD-1 1.5 PD034 2001; PD1 1.5 PD34 2001
For B9, in experiment [4], the “ME (masking efficiency, Kd of the activatable antibody divided by Kd of the parental antibody)” value worked out at 42.

B10: PD-1 1.5 PD009 2001 (antibody, human IgG4 S228P, kappa)
heavy: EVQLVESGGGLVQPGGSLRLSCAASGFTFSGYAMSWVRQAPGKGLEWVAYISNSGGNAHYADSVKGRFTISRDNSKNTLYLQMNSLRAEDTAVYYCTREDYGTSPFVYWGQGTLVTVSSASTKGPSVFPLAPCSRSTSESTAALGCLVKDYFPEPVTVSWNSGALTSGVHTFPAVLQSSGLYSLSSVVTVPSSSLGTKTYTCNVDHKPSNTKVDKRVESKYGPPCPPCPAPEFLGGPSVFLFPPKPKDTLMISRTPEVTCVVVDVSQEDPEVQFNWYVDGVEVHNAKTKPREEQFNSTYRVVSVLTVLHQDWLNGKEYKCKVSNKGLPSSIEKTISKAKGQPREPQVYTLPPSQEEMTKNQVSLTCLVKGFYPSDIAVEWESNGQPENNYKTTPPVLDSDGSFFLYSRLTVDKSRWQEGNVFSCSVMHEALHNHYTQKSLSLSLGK
light: QGQSGQGAPRTCYTYQCSSFYTGGGSSGGSISSGLLSGRSDNHGGGSDIQLTQSPSSLSASVGDRVTITCRASESVDAYGISFMNWFQQKPGKAPKLLIYAASNQGSGVPSRFSGSGSGTDFTLTISSMQPEDFATYYCQQSKDVPWTFGQGTKLEIKRTVAAPSVFIFPPSDEQLKSGTASVVCLLNNFYPREAKVQWKVDNALQSGNSQESVTEQDSKDSTYSLSSTLTLSKADYEKHKVYACEVTHQGLSSPVTKSFNRGEC
In the case of B10, the Kd in experiment [2] was 10 nM. Also, the “Masking Efficiency” value in experiment [3] worked out at 6. Further, in experiment [4], the “ME (masking efficiency, Kd of the activatable antibody divided by Kd of the parental antibody)” value worked out at 2.

B11: Bb2 (antibody, human IgG4 S228P, kappa, V domains shown)
VH: QVQLVQSGAEVKKPGASVKMSCKASGYTFTDYYMDWVRQAPGQGLEWIGYIYPKNGGSSYAQKFQGRATLTVDKSTSTAYMELSSLRSEDTAVYYCARKVVATDYWGQGTLLTVSS
VL: DIQMTQSPSSLSASVGDRVTMTCKSSQSLLYSSNQKNYLAWYQQKPGKAPKLLIFWASIRESGVPSRFSGSGSGTDFTLTISSVQPEDFATYYCQQSDSYPWTFGQGTKLEIKR
notes: as for B1
In the case of B11, the binding result in experiment [1] is on record as “binds”.

B12: PD-1 1.5 PD006 2001 (antibody, human IgG4 S228P, kappa)
heavy: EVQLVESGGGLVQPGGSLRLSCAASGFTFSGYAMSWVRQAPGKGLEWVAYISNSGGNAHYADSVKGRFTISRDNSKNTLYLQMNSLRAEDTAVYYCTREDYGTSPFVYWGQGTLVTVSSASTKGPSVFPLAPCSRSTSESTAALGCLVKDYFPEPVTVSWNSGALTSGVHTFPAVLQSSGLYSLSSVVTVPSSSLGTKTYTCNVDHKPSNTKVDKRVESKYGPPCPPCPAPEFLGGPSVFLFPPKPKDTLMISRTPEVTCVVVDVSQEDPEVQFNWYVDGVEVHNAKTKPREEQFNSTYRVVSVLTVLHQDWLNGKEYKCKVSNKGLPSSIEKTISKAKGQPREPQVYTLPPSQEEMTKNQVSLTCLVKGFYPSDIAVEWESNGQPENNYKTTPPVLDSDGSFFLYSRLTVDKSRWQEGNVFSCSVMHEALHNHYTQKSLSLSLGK
light: QGQSGQGAPRCYMFASYCKSQYGGGSSGGSISSGLLSGRSDNHGGGSDIQLTQSPSSLSASVGDRVTITCRASESVDAYGISFMNWFQQKPGKAPKLLIYAASNQGSGVPSRFSGSGSGTDFTLTISSMQPEDFATYYCQQSKDVPWTFGQGTKLEIKRTVAAPSVFIFPPSDEQLKSGTASVVCLLNNFYPREAKVQWKVDNALQSGNSQESVTEQDSKDSTYSLSSTLTLSKADYEKHKVYACEVTHQGLSSPVTKSFNRGEC
With B12, the Kd in experiment [2] amounted to 71 nM. In addition, the “Masking Efficiency” value in experiment [3] worked out at 39. The “ME (masking efficiency, Kd of the activatable antibody divided by Kd of the parental antibody)” value in experiment [4] worked out at 30.

B13: PD-1 1.5 PD028 2001 (antibody, human IgG4 S228P, kappa)
heavy: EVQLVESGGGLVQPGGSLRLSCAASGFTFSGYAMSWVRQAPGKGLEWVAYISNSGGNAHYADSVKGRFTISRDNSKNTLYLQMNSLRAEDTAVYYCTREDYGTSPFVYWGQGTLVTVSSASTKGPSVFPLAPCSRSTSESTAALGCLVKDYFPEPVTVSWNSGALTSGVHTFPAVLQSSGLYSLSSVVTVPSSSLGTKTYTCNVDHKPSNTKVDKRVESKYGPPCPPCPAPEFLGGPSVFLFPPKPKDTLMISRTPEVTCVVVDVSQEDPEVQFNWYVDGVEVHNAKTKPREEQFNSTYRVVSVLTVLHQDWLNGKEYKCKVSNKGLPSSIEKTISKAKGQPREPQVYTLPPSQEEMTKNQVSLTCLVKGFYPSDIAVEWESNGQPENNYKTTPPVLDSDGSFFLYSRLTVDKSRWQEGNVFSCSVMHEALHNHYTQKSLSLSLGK
light: B12 light with A8F, P9Q, R10P, Y12L, Y17S, K19F, S20T, Q21S, Y22K
As for B13, in experiment [4], the “ME (masking efficiency, Kd of the activatable antibody divided by Kd of the parental antibody)” value amounted to 25.

B14: PD-1 1.5 PD019 2001 (antibody, human IgG4 S228P, kappa)
heavy: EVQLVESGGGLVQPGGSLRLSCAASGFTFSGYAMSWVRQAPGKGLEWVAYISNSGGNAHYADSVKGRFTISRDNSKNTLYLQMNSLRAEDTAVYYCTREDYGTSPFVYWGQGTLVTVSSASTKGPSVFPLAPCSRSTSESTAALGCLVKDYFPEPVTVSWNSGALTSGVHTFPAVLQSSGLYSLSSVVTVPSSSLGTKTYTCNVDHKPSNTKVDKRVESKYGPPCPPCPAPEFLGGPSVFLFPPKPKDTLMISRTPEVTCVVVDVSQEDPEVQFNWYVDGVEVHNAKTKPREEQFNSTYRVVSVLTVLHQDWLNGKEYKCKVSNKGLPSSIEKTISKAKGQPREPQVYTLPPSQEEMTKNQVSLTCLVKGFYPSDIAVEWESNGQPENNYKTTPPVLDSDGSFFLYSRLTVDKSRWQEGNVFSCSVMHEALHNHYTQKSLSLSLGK
light: QGQSGQGPCDQNPYFYPYVCHAGGGSSGGSISSGLLSGRSDNHGGGSDIQLTQSPSSLSASVGDRVTITCRASESVDAYGISFMNWFQQKPGKAPKLLIYAASNQGSGVPSRFSGSGSGTDFTLTISSMQPEDFATYYCQQSKDVPWTFGQGTKLEIKRTVAAPSVFIFPPSDEQLKSGTASVVCLLNNFYPREAKVQWKVDNALQSGNSQESVTEQDSKDSTYSLSSTLTLSKADYEKHKVYACEVTHQGLSSPVTKSFNRGEC
notes: also called PD-19
For B14, the Kd in experiment [2] worked out at 93 nM. Also, in experiment [3], the “Masking Efficiency” value is 52. Moreover, the “ME (masking efficiency, Kd of the activatable antibody divided by Kd of the parental antibody)” value in experiment [4] is 30.
